Entries after “also recorded” stand apart in the source; their conditions may differ.
Assays:
[1] = biological target: gp96 (Mus musculus, UniProt P08113); experiment: Analytical SEC of Meth A gp96 with added Con A; type: binding, murine
Method: To verify gp96 was oligomerized with Con A, a common homogenate from Meth A-induced murine fibrosarcoma tissue was prepared and processed using a process that included Con A and DEAE column chromatography. The final purified gp96 preparation was divided in two. To one half of the material, exogenous con A was added to a final concentration of 50 ug/mL; buffer alone was added to the other as a control, both samples incubated at 37° C. for 2 hr and then fractionated by SEC (Superdex 200). Individual fractions were analyzed by SDS-PAGE, and by gp96- and con A-specific ELISA. Analytical data for material […] is shown in the left panel; that to which con A was added to the right. In the left panel the peak of gp96 is in fraction 5 and con A levels as detected by specific ELISA are low. In the right panel (con A added) two peaks of gp96 are evident as shown by SDS-PAGE (inset; peak fractions 3 (arrow) and 5) and gp96 ELISA (fractions 3 and 5) as well as a distinct peak of Con A centered on fraction 3.
Con A was added (50 ug/mL final) to an aliquot of this gp96 sample (conc. 500 ug/ml), the sample incubated at RT and hourly samples were taken (T=1 through T=5) and analyzed by SEC. A sample comprising con A alone was also run. […] Each sample was then re-analyzed by SEC. […]

[2] = Sigma lectin list; cited from earlier work
[3] = system: Meth A cells; experiment: In vivo Meth A tumor inhibition (tumor protection / rejection) assay; parameters: species or system BALB/c mice; settings: for tumor rejection activity, Con A added in process or to final product: in process 30 and 300 μg/ml, following purification 30 μg/ml
Method: In vivo Meth A growth inhibition assay: BALB/c mice (n=30/group) were immunized on day 0 and day 7 with 10 or 50 μg of gp96 intradermally in the flank. On study day 14, mice were challenged with 1×10^5 Meth A cells intradermally in a total volume of 100 μl. Growing tumors were monitored during the subsequent four weeks. All animals were euthanized on study day 41 after a final tumor measurement. Data was reported as percentage of animals that are tumor-free on study day 41. Control groups included un-immunized (diluent—negative control) and immunized with irradiated Meth A cells (positive control).
In vivo Meth A growth inhibition assay: BALB/c mice (n=10/group) were immunized on day 0 and day 7 with 10 μg of gp96 intradermally in the flank. On study day 14, mice were challenged with 1×10^5 Meth A cells intradermally in a total volume of 100 gl. Growing tumors were monitored during the subsequent four weeks. All animals were euthanized on study day 41 after a final tumor measurement. Data was reported as percentage of animals that are tumor-free on study day 41. Control groups included un-immunized (diluent—negative control) and immunized with irradiated Meth A cells (positive control).
(§1) In vivo Meth A growth inhibition assay: BALB/c mice (n=10/group) were immunized on day 0 and day 7 with 10 μg of gp96 intradermally in the flank. On study day 14, mice were challenged with 1×10^5 Meth A cells intradermally in a total volume of 100 μl. Growing tumors were monitored during the subsequent four weeks. All animals were euthanized on study day 41 after a final tumor measurement. Data was reported as percentage of animals that are tumor-free on study day 41. Control groups included un-immunized (diluent—negative control) and immunized with irradiated Meth A cells (positive control).
as §1, with “with 0.3 or 3” for “with 10”, “gp96 alone or in combination with Con A” for “gp96”

[4] = system: Meth A-specific CD4+ T cell clone 24D3 with irradiated BALB/c splenocytes; experiment: Meth A in vitro antigen representation assay; type: cell-based, mouse (BALB/c); settings: Meth A gp96; versus matched preparation without buffer exchange; IL-5 ELISA
Description: Materials: irradiated BALB/c splenocytes were used as the Antigen Presenting Cells (APCs). The Meth A-specific CD4^+ T cell clone, 24D3, was used. They are restricted by the MHClI molecule I-Ed, and are specific for the antigenic peptide contained within the sequence […]. The medium used for this assay was RPMI 1640 (Gibco-BRL). […] The wild-type form of the L 1 peptide ([…]) was used as a negative control, and the mutated form of the L11 peptide ([…]) was used as the positive control.
The resulting supernatant was further purified using Con A and DEAE chromatography.
Re-Presentation Assay: 2×104 of Meth A specific CD4^+ T cell clones (24D3) were incubated with 5×105 of irradiated BALB/c splenic APCs in the presence of various concentration of gp96 derived from Meth A or other sources (100, 50, 25, 12.5, 6.25 μg/ml final concentration) for 48-72 hrs in the 96 well flat bottom plate in 200 μl of final volume. Wild type ribosomal protein L11 peptide and mutated ribosomal protein L11 peptide were added in replicate wells and used as a negative control or positive control respectively. After 48-72 hours of incubation at 37° C., 5% CO2, 100 μl of supernatant was taken and IL-5 production was measured by ELISA.

Q: Which “effect on high molecular weight gp96-Con A complex in SEC” value ([1]; equal volume of PBS containing 10% α-MM added to 5 hr gp96 + Con A sample) does the source give for CO[C@H]1O[C@H](CO)[C@@H](O)[C@H](O)[C@@H]1O [α-MM, Methyl α-D-Mannopyranoside, reference compound] here?
A: dissociated the high molecular weight complex

Q: With Concanavalin A [Con A] as the molecule, how does the “elution position of gp96 in SEC” value ([1]; Con A 50 ug/mL added to Meth A gp96, Superdex 200 or superose 6) read?
A: mediated a shift in the elution position of the gp96 dimer peak

Q: And the “Specificity Sugar” value [2]?
A: α-man, α-glc

Q: With “PHA-E: Phaseolus Vulgaris lectin, Sigma product” as the molecule, how does the “Specificity Sugar” value [2] read?
A: oligosaccharide

Q: Which “Specificity Sugar” value [2] does the source give for “PHA-L: Phaseolus Vulgaris lectin, Sigma product” here?
A: oligosaccharide

B1: Meth A gp96 (Bx): Meth A gp96 prepared with buffer exchange step between Con A and DEAE columns, increased Con A content (protein, UniProt P08113 22-802, looked up)
Endoplasmin: DDEVDVDGTVEEDLGKSREGSRTDDEVVQREEEAIQLDGLNASQIRELREKSEKFAFQAEVNRMMKLIINSLYKNKEIFLRELISNASDALDKIRLISLTDENALAGNEELTVKIKCDKEKNLLHVTDTGVGMTREELVKNLGTIAKSGTSEFLNKMTEAQEDGQSTSELIGQFGVGFYSAFLVADKVIVTSKHNNDTQHIWESDSNEFSVIADPRGNTLGRGTTITLVLKEEASDYLELDTIKNLVRKYSQFINFPIYVWSSKTETVEEPLEEDEAAKEEKEESDDEAAVEEEEEEKKPKTKKVEKTVWDWELMNDIKPIWQRPSKEVEEDEYKAFYKSFSKESDDPMAYIHFTAEGEVTFKSILFVPTSAPRGLFDEYGSKKSDYIKLYVRRVFITDDFHDMMPKYLNFVKGVVDSDDLPLNVSRETLQQHKLLKVIRKKLVRKTLDMIKKIADEKYNDTFWKEFGTNIKLGVIEDHSNRTRLAKLLRFQSSHHSTDITSLDQYVERMKEKQDKIYFMAGSSRKEAESSPFVERLLKKGYEVIYLTEPVDEYCIQALPEFDGKRFQNVAKEGVKFDESEKTKESREATEKEFEPLLNWMKDKALKDKIEKAVVSQRLTESPCALVASQYGWSGNMERIMKAQAYQTGKDISTNYYASQKKTFEINPRHPLIRDMLRRIKEDEDDKTVMDLAVVLFETATLRSGYLLPDTKAYGDRIERMLRLSLNIDPEAQVEEEPEEEPEDTSEDAEDSEQDEGEEMDAGTEEEEEETEKESTEKDEL
modifications: tumor-derived; contains Con A
notes: Meth A gp96 prepared with buffer exchange step between Con A and DEAE columns, increased Con A content
Q: What does the source list for B1?
A: in vivo tumor protection activity ([3]; Meth A gp96, dose of 10 μg intradermally day 0 and 7, versus matched preparation without buffer exchange): higher in vivo tumor protection activity; in vitro activity in the Meth A representation assay [4]: higher in vitro antigen representation

B2: HSPPC-96 + Con A (final product): Meth A derived gp96 purified by standard procedure with Con A (30 ug/mL) added following purification (protein, UniProt P08113 22-802, looked up)
Endoplasmin: B1 Endoplasmin
modifications: tumor-derived; Con A added
Q: For B2, which “tumor rejection activity, Con A added in process or to final product” value ([3]; 10 μg gp96) is on record?
A: increase in the tumor rejection activity; also recorded: increases the tumor rejection activity

B3: HSPPC-96 + Con A (in process): Meth A derived gp96 with Con A added during the purification process, before the DEAE column (protein, UniProt P08113 22-802, looked up)
Endoplasmin: B1 Endoplasmin
modifications: tumor-derived; Con A added
notes: Meth A derived gp96 with Con A added during the purification process, before the DEAE column
Q: Which “tumor rejection activity, Con A added in process at graded levels” value ([3]; Con A 3, 10, 30, 100, 300 ug/ml added before DEAE, 10 μg gp96, tumor-free on day 41) does the source give for B3 here?
A: titratable increase in the tumor rejection activity

Q: What about the “tumor rejection activity, Con A added in process or to final product” value ([3]; 10 μg gp96) of the same molecule?
A: increase in the tumor rejection activity; also recorded: increases the tumor rejection activity

B4: scFv-purified Meth A gp96 + Con A: Meth A derived gp96 from anti-gp96 scFv immunoaffinity column, Con A added (protein, UniProt P08113 22-802, looked up)
Endoplasmin: B1 Endoplasmin
modifications: tumor-derived; Con A added
Q: With B4 as the molecule, how does the “tumor rejection activity, immunoaffinity (scFv) purified gp96 with Con A” value ([3]; 0.3 or 3 μg gp96 alone or in combination with Con A) read?
A: increases the tumor rejection activity

B5: Pseudomonas aeruginosa (PA-I): lectin, Sigma product (protein, UniProt Q05097 2-122, looked up)
PA-I galactophilic lectin: AWKGEVLANNEAGQVTSIIYNPGDVITIVAAGWASYGPTQKWGPQGDREHPDQGLICHDAFCGALVMKIGNSGTIPVNTGLFRWVAPNNVQGAITLIYNDVPGTYGNNSGSFSVNIGKDQS
Q: Which “Specificity Sugar” value [2] does the source give for B5 here?
A: gal

From patent publication US20040258705A1, “Use of lectins to promote oligomerization of glycoproteins and antigenic molecules” (Antigenics Inc., priority 2003, published 2004)
